B1: RHOBTB1 (parent)
chain: TFGDHHKDRRFAYGRSDVVVLCFS
B2: ADAMTSL2 (parent)
chain: KKPPEESTCFERPCFKWYTSPWSE

Variants of: B1
Assay: protein stability index of a GFP-peptide fusion (GPS, HEK-293T) (PSI 1-6); higher = more stable
Settings: c terminus: a fixed tail appended
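Also: lentivirally expressed fusions sorted by FACS into six bins by GFP to DsRed ratio, PSI derived from sequencing read proportions per bin multiplied by bin number.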

Row | Variant | protein stability index
1 | KFGDHHKDRRFAYGRSDVVVLCFS [T1K] | 2.48
2 | NFGDHHKDRRFAYGRSDVVVLCFS [T1N] | 1.89
3 | AFGDHHKDRRFAYGRSDVVVLCFS [T1A] | 2.71
4 | PFGDHHKDRRFAYGRSDVVVLCFS [T1P] | 2.61
5 | FFGDHHKDRRFAYGRSDVVVLCFS [T1F] | 4.17
6 | VFGDHHKDRRFAYGRSDVVVLCFS [T1V] | 3.58
7 | EFGDHHKDRRFAYGRSDVVVLCFS [T1E] | 2.06
8 | QFGDHHKDRRFAYGRSDVVVLCFS [T1Q] | 2.25
9 | TDGDHHKDRRFAYGRSDVVVLCFS [F2D] | 2.19
10 | TCGDHHKDRRFAYGRSDVVVLCFS [F2C] | 3.44
11 | THGDHHKDRRFAYGRSDVVVLCFS [F2H] | 1.85
12 | TLGDHHKDRRFAYGRSDVVVLCFS [F2L] | 2.32
13 | TIGDHHKDRRFAYGRSDVVVLCFS [F2I] | 2.17
14 | TNGDHHKDRRFAYGRSDVVVLCFS [F2N] | 2.23
15 | TSGDHHKDRRFAYGRSDVVVLCFS [F2S] | 1.02
16 | TEGDHHKDRRFAYGRSDVVVLCFS [F2E] | 1.31
17 | TAGDHHKDRRFAYGRSDVVVLCFS [F2A] | 1.63
18 | TKGDHHKDRRFAYGRSDVVVLCFS [F2K] | 2.65
19 | TPGDHHKDRRFAYGRSDVVVLCFS [F2P] | 3.35

Row | Variant | protein stability index
20 | TMGDHHKDRRFAYGRSDVVVLCFS [F2M] | 1.81
21 | TWGDHHKDRRFAYGRSDVVVLCFS [F2W] | 2.28
22 | TFGDHHKDRCFAYGRSDVVVLCFS [R10C] | 2.7
23 | TFGDHHKDRDFAYGRSDVVVLCFS [R10D] | 2.03
24 | TFGDHHKDRVFAYGRSDVVVLCFS [R10V] | 2.19
25 | TFGDHHKDRPFAYGRSDVVVLCFS [R10P] | 3.19
26 | TFGDHHKDRMFAYGRSDVVVLCFS [R10M] | 1.76
27 | TFGDHHKDRNFAYGRSDVVVLCFS [R10N] | 3.35
28 | TFGDHHKDRGFAYGRSDVVVLCFS [R10G] | 4.76
29 | TFGDHHKDRAFAYGRSDVVVLCFS [R10A] | 2.32
30 | TFGDHHKDRQFAYGRSDVVVLCFS [R10Q] | 2.27
31 | TFGDHHKDRSFAYGRSDVVVLCFS [R10S] | 3.52
32 | TFGDHHKDREFAYGRSDVVVLCFS [R10E] | 1.47
33 | TFGDHHKDRHFAYGRSDVVVLCFS [R10H] | 2.59
34 | TFGDHHKDRKFAYGRSDVVVLCFS [R10K] | 2.21
35 | TFGDHHKDRIFAYGRSDVVVLCFS [R10I] | 1.96
36 | TFGDHHKDRTFAYGRSDVVVLCFS [R10T] | 2.93
37 | TFGDHQKDRRFAYGRSDVVVLCFS [H6Q] | 2.14
38 | TFGDHEKDRRFAYGRSDVVVLCFS [H6E] | 3

Row | Variant | protein stability index
39 | TFGDHTKDRRFAYGRSDVVVLCFS [H6T] | 1.94
40 | TFGDHLKDRRFAYGRSDVVVLCFS [H6L] | 3.15
41 | TFGDHSKDRRFAYGRSDVVVLCFS [H6S] | 2.21
42 | TFGDHCKDRRFAYGRSDVVVLCFS [H6C] | 1.2
43 | TFGDHKKDRRFAYGRSDVVVLCFS [H6K] | 2.33
44 | TFGDHFKDRRFAYGRSDVVVLCFS [H6F] | 2.33
45 | TFGDHHKDRRSAYGRSDVVVLCFS [F11S] | 1.13
46 | TFGDHHKDRRHAYGRSDVVVLCFS [F11H] | 2.37
47 | TFGDHHKDRRPAYGRSDVVVLCFS [F11P] | 1.89
48 | TFGDHHKDRRAAYGRSDVVVLCFS [F11A] | 1.69
49 | TFGDHHKDRRLAYGRSDVVVLCFS [F11L] | 1.98
50 | TFGDHHKDRREAYGRSDVVVLCFS [F11E] | 1.49
51 | TFGDHHKDRRWAYGRSDVVVLCFS [F11W] | 2.28
52 | TFGDHHKDRRYAYGRSDVVVLCFS [F11Y] | 1.27
53 | TFGDHHKDRRDAYGRSDVVVLCFS [F11D] | 1.78
54 | TFGDHHKDRRNAYGRSDVVVLCFS [F11N] | 2.49
55 | TFGDHHKDRRIAYGRSDVVVLCFS [F11I] | 2.38
56 | TFGDHHKDRRKAYGRSDVVVLCFS [F11K] | 1.35

Variants of: B2
Assay: as above
Settings: c terminus: a fixed tail appended

Row | Variant | protein stability index
57 | KKPPEESTCFERPCFKWYTSPWWE [S23W] | 2.19
58 | KKPPEESTCFERPCFKWYTSPWLE [S23L] | 2.34
59 | KKPPEESTCFERPCFKWYTSPWEE [S23E] | 3.02
60 | KKPPEESTCFERPCFKWYTSPWQE [S23Q] | 2.47
61 | KKPPEESTCFERPCFKWYTSPWME [S23M] | 2.04
62 | KKPPEESTCFERPCFKWYTSPWKE [S23K] | 2.53
63 | KKPPEESTCFERPCFKWYTSPWIE [S23I] | 2.6
64 | KKPPEESTCFERPCFKWYTSPWYE [S23Y] | 2.35
65 | KKPPEESTCFERPCFKWYTSPWHE [S23H] | 2.55
66 | KKPPEESTCFERPCFKWYTSPWNE [S23N] | 2.5
67 | KKPPEESTCFERPCFKWYTSPWFE [S23F] | 1.69
68 | KKPPEESTCFERPCFKWYTSPWVE [S23V] | 2.23
69 | KKPPEESTCFERPCFKWYTSPWAE [S23A] | 1.74
70 | KKPPEESTCFERPCFKWYTSPWCE [S23C] | 2.23
71 | KKPPEESTCFERPCFKWYTSPWTE [S23T] | 1.87
72 | KKPPEESTCFERPCFKWYTSPWDE [S23D] | 2.48
73 | KKPPEESTCFERPCFKWYTSPWRE [S23R] | 2.22
74 | KKPPEESTCFERPCFKWYTSPWGE [S23G] | 1.91
75 | KKPPEESTCFERPCFKWYTSPWPE [S23P] | 2.6

Row | Variant | protein stability index
76 | KKPPEESTCFERPCFKWYTSPWSN [E24N] | 1.6
77 | KKPPEESTCFERPCFKWYTSPWST [E24T] | 1.97
78 | KKPPEESTCFERPCFKWYTSPWSC [E24C] | 2.22
79 | KKPPEESTCFERPCFKWYTSPWSY [E24Y] | 2.11
80 | KKPPEESTCFERPCFKWYTSPWSK [E24K] | 1.82
81 | KKPPEESTCFERPCFKWYTSPWSR [E24R] | 1.83
82 | KKPPEESTCFERPCFKWYTSPWSV [E24V] | 1.83
83 | KKPPEESTCFERPCFKWYTSPWSH [E24H] | 2.04
84 | KKPPEESTCFERPCFKWYTSPWSF [E24F] | 2.27
85 | KKPPEESTCFERPCFKWYTSPWSW [E24W] | 2.09
86 | KKPPEESTCFERPCFKWYTSPWSS [E24S] | 2.07
87 | KKPPEESTCFERPCFKWYTSPWSL [E24L] | 1.72
88 | KKPPEESTCFERPCFKWYTSPWSQ [E24Q] | 2.37
89 | KKPPEESTCFERPCFKWYTSPWSG [E24G] | 2.27
90 | KKPPEESTCFERPCFKWYTSPWSP [E24P] | 2.4
91 | KKPPEESTCFERPCFKWYTSPWSD [E24D] | 2.76
92 | KKPPEESTCFERPCFKWYTSPWSA [E24A] | 2.06
93 | KKPPEESTCFERPCFKWYTSPWSM [E24M] | 1.68
94 | KKPPEESTCFERPCFKWYTSPWSI [E24I] | 1.73
